Key:
[1] = target: GPIIb/IIIa on non-activated (resting) human platelets (human, UniProt P08514 32-1039; P05106 27-788); assay: flow cytometry on human platelets, anti-Penta-His Alexa Fluor 488 detection
Protocol: (§1) Binding of scFv-CD39 to activated human platelets was evaluated by flow cytometry: 0.1 mg/mL of scFv-CD39, 0.2 mg/mL of scFvₘᵤₜ-CD39 (both activity matched), and 0.038 mg/mL of anti-CD41 scFv (equimolar amount of the scFv in scFv-CD39) were tested.
(§2) Citrated blood from volunteers was centrifuged at 180 g for 10 minutes. The platelet-rich plasma (PRP) was collected and stored at 37° C. The remainder (infranatant) was centrifuged at 2500 g for 10 minutes, and its supernatant was collected as platelet-poor plasma (PPP).
(§3) PRP was diluted 1:20 in phosphate-buffered saline (PBS; 100 mg/L calcium chloride, 100 mg/L magnesium chloride). To investigate the binding of scFv-CD39 constructs, the diluted PRP ([…]) was either preincubated with a final concentration of […] ADP or […] of PBS for 15 minutes before addition of the constructs. The binding was then determined via a Penta-His Alexa Fluor-488-conjugated monoclonal antibody (Qiagen). To investigate the ecto-nucleoside triphosphate diphosphohydrolase efficiency, PRP was preincubated with scFv-CD39 constructs before administration of […] ADP. Platelet activation status was measured by a phycoerythrin (PE)-labeled anti-P-selectin antibody (BD Bioscience). Samples were fixed using […] Cellfix (BD Bioscience) and analyzed on a FACS Calibur (BD Bioscience).

[2] = target: T1, activated glycoprotein GPIIb/IIIa on ADP-activated human platelets (human, UniProt P08514 32-1039; P05106 27-788); assay: flow cytometry on ADP-activated human platelets, anti-Penta-His Alexa Fluor 488 detection
T1 construct: also called integrin alphaIIbbeta3
T1 sequence (P08514 32-1039 limits assumed, chain 1 of 2): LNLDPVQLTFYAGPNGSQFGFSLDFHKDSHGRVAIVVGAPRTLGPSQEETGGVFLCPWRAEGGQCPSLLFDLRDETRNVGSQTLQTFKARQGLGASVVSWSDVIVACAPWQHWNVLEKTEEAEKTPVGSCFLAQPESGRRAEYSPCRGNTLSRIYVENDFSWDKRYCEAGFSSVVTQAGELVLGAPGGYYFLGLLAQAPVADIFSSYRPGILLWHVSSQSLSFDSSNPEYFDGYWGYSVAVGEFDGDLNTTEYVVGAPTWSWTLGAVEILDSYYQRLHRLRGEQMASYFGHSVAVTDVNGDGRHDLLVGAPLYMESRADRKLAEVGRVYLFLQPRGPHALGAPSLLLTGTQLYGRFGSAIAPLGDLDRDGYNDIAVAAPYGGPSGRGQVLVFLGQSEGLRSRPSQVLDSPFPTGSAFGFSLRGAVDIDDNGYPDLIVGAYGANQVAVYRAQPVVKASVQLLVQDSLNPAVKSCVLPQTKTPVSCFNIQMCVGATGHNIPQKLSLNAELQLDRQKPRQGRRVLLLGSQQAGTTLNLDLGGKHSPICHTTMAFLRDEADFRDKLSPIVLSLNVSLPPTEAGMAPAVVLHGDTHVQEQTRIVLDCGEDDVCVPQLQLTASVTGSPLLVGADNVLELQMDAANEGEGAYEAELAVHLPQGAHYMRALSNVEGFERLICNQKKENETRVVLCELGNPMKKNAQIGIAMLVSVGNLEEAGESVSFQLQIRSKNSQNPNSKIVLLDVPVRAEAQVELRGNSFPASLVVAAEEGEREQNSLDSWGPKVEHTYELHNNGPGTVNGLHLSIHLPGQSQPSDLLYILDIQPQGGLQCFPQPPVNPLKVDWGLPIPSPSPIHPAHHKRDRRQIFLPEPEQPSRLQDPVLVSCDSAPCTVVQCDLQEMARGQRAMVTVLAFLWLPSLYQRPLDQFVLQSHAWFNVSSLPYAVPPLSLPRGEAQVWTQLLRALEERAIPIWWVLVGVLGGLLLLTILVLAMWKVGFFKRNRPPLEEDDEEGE
T1 sequence (P05106 27-788 limits assumed, chain 2 of 2): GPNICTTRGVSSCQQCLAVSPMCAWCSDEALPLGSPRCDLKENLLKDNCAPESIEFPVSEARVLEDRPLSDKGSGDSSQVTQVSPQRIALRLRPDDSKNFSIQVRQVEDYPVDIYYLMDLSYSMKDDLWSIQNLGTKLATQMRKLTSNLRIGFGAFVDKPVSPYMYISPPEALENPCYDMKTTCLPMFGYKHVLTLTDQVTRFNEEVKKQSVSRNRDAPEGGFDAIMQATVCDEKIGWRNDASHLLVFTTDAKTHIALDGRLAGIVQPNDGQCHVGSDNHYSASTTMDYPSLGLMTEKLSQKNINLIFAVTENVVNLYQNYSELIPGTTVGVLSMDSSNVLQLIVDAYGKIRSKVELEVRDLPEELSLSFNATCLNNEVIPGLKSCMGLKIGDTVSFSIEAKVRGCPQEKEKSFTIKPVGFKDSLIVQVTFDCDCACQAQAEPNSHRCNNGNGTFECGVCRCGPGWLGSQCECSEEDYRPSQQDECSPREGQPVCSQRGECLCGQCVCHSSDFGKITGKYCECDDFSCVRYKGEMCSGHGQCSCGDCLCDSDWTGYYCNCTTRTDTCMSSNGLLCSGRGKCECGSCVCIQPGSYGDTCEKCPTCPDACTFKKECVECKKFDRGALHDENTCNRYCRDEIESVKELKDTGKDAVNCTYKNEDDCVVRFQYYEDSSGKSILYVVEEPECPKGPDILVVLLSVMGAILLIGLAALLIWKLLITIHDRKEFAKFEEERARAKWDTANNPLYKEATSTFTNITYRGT
Protocol: as §1, §2, §3

Sequence of GPIIb/IIIa on non-activated (resting) human platelets (P08514 32-1039 limits assumed, chain 1 of 2): as the sequence (P08514 32-1039 limits assumed, chain 1 of 2) above
Sequence of GPIIb/IIIa on non-activated (resting) human platelets (P05106 27-788 limits assumed, chain 2 of 2): as the sequence (P05106 27-788 limits assumed, chain 2 of 2) above

binding result [1]: no binding (tested: 0.2 mg/mL) | binding result [2]: no binding (tested: 0.2 mg/mL)
B1: scFvmut-CD39 (scFv)
chain: HHHHHHHHRRAVRSLVPSSDPLQCGGILAEVQLVQSGAEVNKPGASVKVSCKASGYTFTGYYMHWVRQAPGQGLEWMGWINPNSGGTNYAQKFQGWVTMTRDTSISTAYMELSRLRSDDTAVYYCARGRALYNANDRSPNWFDPWGQGTLVTVSSGSASAPTLKLEEGEFSEARVQAVLTQPPSVSVAPGQTARITCGGNNIGSKSVQWYQQKPGQAPVLVVYDDSDRPSGIPERFSGSNSGNMATLTISRVEAGDEADYYCQVWDSSSDHVVFGGGTKLTVLGGKPIPNPLLGLDSTLPETGGLEEAAATQNKALPENVKYGIVLDAGSSHTSLYIYKWPAEKENDTGVVHQVEECRVKGPGISKFVQKVNEIGIYLTDCMERAREVIPRSQHQETPVYLGATAGMRLLRMESEELADRVLDVVERSLSNYPFDFQGARIITGQEEGAYGWITINYLLGKFSQKTRWFSIVPYETNNQETFGALDLGGASTQVTFVPQNQTIESPDNALQFRLYGKDYNVYTHSFLCYGKDQALWQKLAKDIQVASNEILRDPCFHPGYKKVVNVSDLYKTPCTKRFEMTLPFQQFEIQGIGNYQQCHQSILELFNTSYCPYSQCAFNGIFLPPLQGDFGAFSAFYFVMKFLNLTSEKVSQEKVTEMMKKFCAQPWEEIKTSYAGVKEKYLSEYCFSGTYILSLLLQGYHFTADSWEHIHFIGKIQGSDAGWTLGYMLNLTNMIPAEQPLSTPLSHSTTRGGPEQKLISEEDLNSAVDHHHHHH
notes: Non-targeting control construct; also called non-targ-CD39; Non-targCD39; not shown: 6xHis-tag used for detection

Source: US20230399376A1 (BAKER HEART AND DIABETES INSTITUTE, published 2023)
